The text below walks through data of paper PMC10397247.

Where two headings read alike, the source gives them in different places.

What all share (assay): two-hybrid library CCmax;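 also: natural log of median RNA to DNA barcode read ratio; higher means stronger binding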
One assay addresses T1, 4H3619-AA.
T1 chain: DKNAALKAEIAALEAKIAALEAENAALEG
To be noted: mean of both orientations.

The target in another assay is T2, 4H446-AA.
T2 chain: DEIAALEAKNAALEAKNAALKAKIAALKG
To be noted: mean of both orientations.

In the next assay the target is T3, 4H3414-AA.
T3 chain: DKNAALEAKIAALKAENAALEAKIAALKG
The settings on record: mean of both orientations.

Another assay has as its target T4, 4H341-AA.
T4 chain: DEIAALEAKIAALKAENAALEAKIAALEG
The settings on record: mean of both orientations.

The next assay addresses T5, 4H3969-AA.
T5 chain: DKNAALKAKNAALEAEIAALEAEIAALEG
To be noted: mean of both orientations.

The next assay has as its target T6, 4H3939-AA.
T6 chain: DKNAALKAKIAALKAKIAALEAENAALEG
The settings on record: mean of both orientations.

A further assay concerns the target T7, 4H464-AA.
T7 chain: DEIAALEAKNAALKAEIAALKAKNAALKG
To be noted: mean of both orientations.

A further assay addresses T8, 4H3782-AA.
T8 chain: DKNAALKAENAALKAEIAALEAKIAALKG
To be noted: mean of both orientations.

The target of a further assay is T9, 4H3595-AA.
T9 chain: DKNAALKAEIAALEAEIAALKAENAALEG

In another assay the target is T10, 4H3094-AA.
T10 chain: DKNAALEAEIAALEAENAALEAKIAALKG
To be noted: mean of both orientations.

In another assay the target is T11, 4H432-AA.
T11 chain: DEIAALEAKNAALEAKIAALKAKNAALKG
To be noted: mean of both orientations.

The target in the next assay is T12, 4H3777-AA.
T12 chain: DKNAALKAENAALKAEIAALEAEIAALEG
The settings on record: mean of both orientations.

The next assay has as its target T13, 4H380-AA.
T13 chain: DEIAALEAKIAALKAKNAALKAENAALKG
The settings on record: mean of both orientations.

The next assay has as its target T14, 4H3129-AA.
T14 chain: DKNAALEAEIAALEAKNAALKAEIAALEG

Another assay deals with T15, 4H63-AA.
T15 chain: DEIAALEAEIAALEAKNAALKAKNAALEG

The next assay deals with T16, 4H2961-AA.
T16 chain: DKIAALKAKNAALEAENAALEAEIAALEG

Another assay deals with T17, 4H3915-AA.
T17 chain: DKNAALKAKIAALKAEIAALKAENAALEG
The settings on record: mean of both orientations.

In the next assay the target is T18, 4H324-AA.
T18 chain: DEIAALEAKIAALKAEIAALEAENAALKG
To be noted: mean of both orientations.

Another assay addresses T19, 4H3629-AA.
T19 chain: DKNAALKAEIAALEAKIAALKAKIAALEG

A further assay concerns the target T20, 4H3049-AA.
T20 chain: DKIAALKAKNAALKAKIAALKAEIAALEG
The settings on record: mean of both orientations.

A further assay addresses T21, 4H3449-AA.
T21 chain: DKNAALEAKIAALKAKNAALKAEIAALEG
The settings on record: mean of both orientations.

Another assay has as its target T22, 4H483-AA.
T22 chain: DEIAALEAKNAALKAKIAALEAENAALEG
To be noted: mean of both orientations.

The target in another assay is T23, 4H3974-AA.
T23 chain: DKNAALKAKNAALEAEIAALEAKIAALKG
The settings on record: mean of both orientations.

For another assay, the target named is T24, APC5383-AA.
T24 chain: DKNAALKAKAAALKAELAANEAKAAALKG
The settings on record: mean of both orientations.

The next assay addresses T25, APC8910-AA.
T25 chain: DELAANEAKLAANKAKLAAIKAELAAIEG
The settings on record: mean of both orientations.

The target in a further assay is T26, APC8191-AA.
T26 chain: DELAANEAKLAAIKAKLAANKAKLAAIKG
To be noted: mean of both orientations.

For the next assay, the target named is T27, APC9096-AA.
T27 chain: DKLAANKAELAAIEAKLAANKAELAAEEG
The settings on record: mean of both orientations.

The target in the next assay is T28, APC6108-AA.
T28 chain: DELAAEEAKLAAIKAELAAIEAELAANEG
To be noted: mean of both orientations.

For the next assay, the target named is T29, APC4436-AA.
T29 chain: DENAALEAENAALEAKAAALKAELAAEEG

A further assay deals with T30, APC7099-AA.
T30 chain: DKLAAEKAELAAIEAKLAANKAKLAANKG
The settings on record: mean of both orientations.

The target of another assay is T31, APC9319-AA.
T31 chain: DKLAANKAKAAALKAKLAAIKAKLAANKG
The settings on record: mean of both orientations.

In the case of DKIAALKAKNAALEAENAALEAEIAALEG [4H2961-AA], the interaction score was -1.98 in the assay with 4H3619-AA; 1.97 with 4H446-AA; -1.46 with 4H3414-AA; -0.961 in the assay with 4H341-AA; -1.8 with 4H3969-AA; -1.84 in the assay with 4H3939-AA. Moreover, the interaction score was -0.618 in the assay with 4H464-AA; -1.44 in the assay with 4H3782-AA; -1.7 with 4H3595-AA; -1.08 with 4H3094-AA; -0.0165 with 4H432-AA; -1.97 with 4H3777-AA. Further, the interaction score with 4H380-AA is -1.56; in the assay with 4H3129-AA (mean of both orientations), -1.5; with 4H63-AA, -1.2; in the assay with 4H2961-AA, -1.84; in the assay with 4H3915-AA it was -1.91; in the assay with 4H324-AA, -1.69. The interaction score is -1.26 with 4H3629-AA; 1.02 with 4H3049-AA; -1.67 with 4H3449-AA; -1.35 with 4H483-AA; -1.82 with 4H3974-AA.
As for DKNAALEAEIAALEAKNAALKAEIAALEG [4H3129-AA], the interaction score was -2.05 with 4H446-AA; 2.24 in the assay with 4H3414-AA; 2.19 with 4H341-AA; -1.84 with 4H3969-AA; -1.82 with 4H3939-AA; -1.78 in the assay with 4H464-AA. Moreover, the interaction score with 4H3782-AA was -1.55; in the assay with 4H3595-AA (mean of both orientations), -1.39; in the assay with 4H380-AA, -1.83; in the assay with 4H3129-AA it was -1.5; with 4H63-AA (mean of both orientations) it was -2.14; in the assay with 4H3629-AA (mean of both orientations), -0.839. Further, the interaction score in the assay with 4H483-AA is -2.19.
With DENAALEAENAALEAKAAALKAELAAEEG [APC4436-AA], the interaction score with APC5383-AA is -1.76; in the assay with APC8910-AA, -1.76; with APC8191-AA, -2.27; with APC9096-AA, -1.96; in the assay with APC6108-AA, -2.03; in the assay with APC4436-AA it was -2.09. In addition, the interaction score is -1.57 with APC7099-AA and -1.7 with APC9319-AA.
